Results published in PMC4197110.

Molecular target: dynamic microtubules grown from GMPCPP-stabilized seeds (UniProt Q6B856)
Test: optical trap rupture force assay

Sequence of UniProt Q6B856 (Q6B856 whole entry, looked up): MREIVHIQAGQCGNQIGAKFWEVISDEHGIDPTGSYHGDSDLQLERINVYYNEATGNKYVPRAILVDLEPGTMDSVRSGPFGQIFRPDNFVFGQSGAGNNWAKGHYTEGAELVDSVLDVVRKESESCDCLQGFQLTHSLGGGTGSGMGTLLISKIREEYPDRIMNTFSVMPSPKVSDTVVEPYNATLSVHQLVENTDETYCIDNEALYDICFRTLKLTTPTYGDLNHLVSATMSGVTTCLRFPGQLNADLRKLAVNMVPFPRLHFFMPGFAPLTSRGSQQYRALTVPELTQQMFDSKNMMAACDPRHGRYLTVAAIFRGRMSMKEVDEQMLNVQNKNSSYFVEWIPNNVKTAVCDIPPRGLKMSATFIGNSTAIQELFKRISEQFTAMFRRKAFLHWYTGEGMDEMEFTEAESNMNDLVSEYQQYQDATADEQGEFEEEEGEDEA

mean rupture force: 2.7 pN
Substance: dad1-1 kinetochore particles (from UniProt P40568 1-576) (complex)
